The data set relates to Escherichia coli TOP10. Briefly: shrunken log2 fold change of peptide-encoding DNA abundance (4.5 h post-induction vs induction); higher = less antimicrobial activity (less host growth inhibition). The conditions noted are these: time post-induction: 4.5 h; library: site-saturation at positions 5, 18, 19, 20.
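Further: peptides expressed intracellularly from a pBAD plasmid library in pooled LB shake-flask culture, induced with 0.3% L-arabinose, DNA abundance read by NGS, three biological replicates, DESeq2 with apeglm shrinkage.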

As for RRIRNRPPRLPRPRPRPCEMPRP, the “shrunken log2 fold change” value is 0.019.

RRIRMRPPRLPRPRPRPGRRPRP: the “shrunken log2 fold change” value is 0.724.

RRIRARPPRLPRPRPRPTDPPRP: the “shrunken log2 fold change” value worked out at 0.2.

RRIRCRPPRLPRPRPRPCTYPRP: the “shrunken log2 fold change” value was -1.19.

For the sequence RRIRKRPPRLPRPRPRPVQIPRP, the “shrunken log2 fold change” value was 0.13.

In the case of RRIRDRPPRLPRPRPRPRVMPRP, the “shrunken log2 fold change” value amounted to 0.106.

Turning to RRIRERPPRLPRPRPRPAWAPRP, the “shrunken log2 fold change” value turned out to be 0.0704.

With RRIRTRPPRLPRPRPRPTTVPRP, the “shrunken log2 fold change” value is -0.271.

Turning to RRIRLRPPRLPRPRPRPPILPRP, the “shrunken log2 fold change” value is -0.287.

As to RRIRYRPPRLPRPRPRPQDIPRP, the “shrunken log2 fold change” value is -0.252.

Consider RRIRLRPPRLPRPRPRPKCKPRP, for which the “shrunken log2 fold change” value was -0.223.

Turning to RRIRRRPPRLPRPRPRPVGAPRP, the “shrunken log2 fold change” value was 0.592.

RRIRSRPPRLPRPRPRPPPQPRP: the “shrunken log2 fold change” value stood at 0.835.

Regarding RRIRRRPPRLPRPRPRPQATPRP, the “shrunken log2 fold change” value is 0.233.

Consider RRIRMRPPRLPRPRPRPAQLPRP, for which the “shrunken log2 fold change” value was 0.101.

For RRIRCRPPRLPRPRPRPQMRPRP, the “shrunken log2 fold change” value was found to be 0.611.

Take RRIRARPPRLPRPRPRPDAFPRP: the “shrunken log2 fold change” value was 0.879.

Take RRIRYRPPRLPRPRPRPPKIPRP: the “shrunken log2 fold change” value came to 0.152.

RRIRWRPPRLPRPRPRPGKEPRP: the “shrunken log2 fold change” value is -0.0139.

With RRIRMRPPRLPRPRPRPQEIPRP, the “shrunken log2 fold change” value is -0.00046.

Turning to RRIRIRPPRLPRPRPRPTYHPRP, the “shrunken log2 fold change” value is -0.949.

Consider RRIRYRPPRLPRPRPRPVVDPRP, for which the “shrunken log2 fold change” value was -0.0233.

On to RRIRQRPPRLPRPRPRPTDGPRP, for which the “shrunken log2 fold change” value was 0.178.

On to RRIRKRPPRLPRPRPRPTCGPRP, for which the “shrunken log2 fold change” value is 0.561.

Consider RRIRDRPPRLPRPRPRPDGKPRP, for which the “shrunken log2 fold change” value was 0.00996.

Regarding RRIRGRPPRLPRPRPRPLKEPRP, the “shrunken log2 fold change” value was 0.343.

RRIRFRPPRLPRPRPRPEYFPRP: the “shrunken log2 fold change” value came out at 0.186.

As to RRIRQRPPRLPRPRPRPHPCPRP, the “shrunken log2 fold change” value is -0.0985.

Consider RRIRHRPPRLPRPRPRPNSAPRP, for which the “shrunken log2 fold change” value is -0.0296.

As to RRIRFRPPRLPRPRPRPRNIPRP, the “shrunken log2 fold change” value was -0.313.

Consider RRIRARPPRLPRPRPRPTDIPRP, for which the “shrunken log2 fold change” value turned out to be 0.224.

As to RRIRGRPPRLPRPRPRPQFIPRP, the “shrunken log2 fold change” value was 0.0876.

Take RRIRRRPPRLPRPRPRPSSGPRP: the “shrunken log2 fold change” value turned out to be 0.0144.

On to RRIRTRPPRLPRPRPRPADLPRP, for which the “shrunken log2 fold change” value was determined as 0.0274.

Regarding RRIRKRPPRLPRPRPRPNDDPRP, the “shrunken log2 fold change” value was 0.414.

Take RRIRSRPPRLPRPRPRPNLMPRP: the “shrunken log2 fold change” value was -0.177.

RRIRSRPPRLPRPRPRPIWYPRP: the “shrunken log2 fold change” value is -0.373.

In the case of RRIRWRPPRLPRPRPRPCRKPRP, the “shrunken log2 fold change” value was -0.0352.

Turning to RRIRDRPPRLPRPRPRPWECPRP, the “shrunken log2 fold change” value is -0.0018.

Consider RRIRTRPPRLPRPRPRPEIGPRP, for which the “shrunken log2 fold change” value is -0.103.

For the sequence RRIRERPPRLPRPRPRPNWIPRP, the “shrunken log2 fold change” value was -0.324.

For the sequence RRIRDRPPRLPRPRPRPRKRPRP, the “shrunken log2 fold change” value was found to be 0.382.

On to RRIRERPPRLPRPRPRPVSMPRP, for which the “shrunken log2 fold change” value was -0.295.

For RRIRTRPPRLPRPRPRPFRNPRP, the “shrunken log2 fold change” value worked out at 0.0337.

Turning to RRIRYRPPRLPRPRPRPVTGPRP, the “shrunken log2 fold change” value is -0.213.

Regarding RRIRPRPPRLPRPRPRPKAWPRP, the “shrunken log2 fold change” value is -0.0274.

RRIRHRPPRLPRPRPRPGYCPRP: the “shrunken log2 fold change” value is -0.507.

On to RRIRDRPPRLPRPRPRPMNKPRP, for which the “shrunken log2 fold change” value was -0.381.

With RRIRERPPRLPRPRPRPIRIPRP, the “shrunken log2 fold change” value is -0.00822.

For RRIRERPPRLPRPRPRPHPEPRP, the “shrunken log2 fold change” value is -0.073.

In the case of RRIRLRPPRLPRPRPRPSHSPRP, the “shrunken log2 fold change” value is -0.775.

Turning to RRIRWRPPRLPRPRPRPKLIPRP, the “shrunken log2 fold change” value is -0.211.

In the case of RRIRERPPRLPRPRPRPKDDPRP, the “shrunken log2 fold change” value was 0.104.

In the case of RRIRIRPPRLPRPRPRPQTHPRP, the “shrunken log2 fold change” value was -0.412.

In the case of RRIRKRPPRLPRPRPRPHYQPRP, the “shrunken log2 fold change” value was -0.101.

With RRIRDRPPRLPRPRPRPTPSPRP, the “shrunken log2 fold change” value was 0.368.

Consider RRIRRRPPRLPRPRPRPESFPRP, for which the “shrunken log2 fold change” value was 0.0965.

As to RRIRARPPRLPRPRPRPTLVPRP, the “shrunken log2 fold change” value was determined as 0.562.

On to RRIRNRPPRLPRPRPRPWESPRP, for which the “shrunken log2 fold change” value amounted to 0.291.

Take RRIRNRPPRLPRPRPRPDLCPRP: the “shrunken log2 fold change” value is -0.0418.

Consider RRIRSRPPRLPRPRPRPATCPRP, for which the “shrunken log2 fold change” value is -0.154.

RRIRFRPPRLPRPRPRPEMRPRP: the “shrunken log2 fold change” value was determined as 0.244.

For RRIRPRPPRLPRPRPRPYSDPRP, the “shrunken log2 fold change” value was -0.713.

RRIRGRPPRLPRPRPRPTRGPRP: the “shrunken log2 fold change” value came out at 0.808.

For the sequence RRIRYRPPRLPRPRPRPSDHPRP, the “shrunken log2 fold change” value is -0.42.

For RRIRQRPPRLPRPRPRPVVRPRP, the “shrunken log2 fold change” value was 0.169.

Turning to RRIRHRPPRLPRPRPRPPAYPRP, the “shrunken log2 fold change” value is 0.181.

On to RRIRGRPPRLPRPRPRPENDPRP, for which the “shrunken log2 fold change” value is 1.74.

RRIRTRPPRLPRPRPRPEMMPRP: the “shrunken log2 fold change” value was -0.0411.

Take RRIRSRPPRLPRPRPRPLNMPRP: the “shrunken log2 fold change” value is -0.316.

Turning to RRIRHRPPRLPRPRPRPLFYPRP, the “shrunken log2 fold change” value was -0.702.

In the case of RRIRSRPPRLPRPRPRPVVNPRP, the “shrunken log2 fold change” value turned out to be 0.0966.

For RRIRMRPPRLPRPRPRPSWSPRP, the “shrunken log2 fold change” value came out at 0.154.

Take RRIRARPPRLPRPRPRPQEQPRP: the “shrunken log2 fold change” value is 0.0884.

RRIRWRPPRLPRPRPRPENCPRP: the “shrunken log2 fold change” value was 0.138.

As to RRIRKRPPRLPRPRPRPLREPRP, the “shrunken log2 fold change” value was determined as 0.718.

As for RRIRARPPRLPRPRPRPMVKPRP, the “shrunken log2 fold change” value was -0.00629.

On to RRIRARPPRLPRPRPRPYCTPRP, for which the “shrunken log2 fold change” value was -0.0621.

Take RRIRGRPPRLPRPRPRPKGNPRP: the “shrunken log2 fold change” value was determined as 0.598.

Take RRIRNRPPRLPRPRPRPWYNPRP: the “shrunken log2 fold change” value was -0.00192.

On to RRIRMRPPRLPRPRPRPETHPRP, for which the “shrunken log2 fold change” value came out at 2.51.

Consider RRIRNRPPRLPRPRPRPFGMPRP, for which the “shrunken log2 fold change” value is 0.0298.

As for RRIRNRPPRLPRPRPRPFVDPRP, the “shrunken log2 fold change” value is -0.725.

With RRIRVRPPRLPRPRPRPFKCPRP, the “shrunken log2 fold change” value was -0.0453.

RRIRQRPPRLPRPRPRPECEPRP: the “shrunken log2 fold change” value is 0.028.

With RRIRTRPPRLPRPRPRPNLEPRP, the “shrunken log2 fold change” value is -0.0562.

For RRIRFRPPRLPRPRPRPVPQPRP, the “shrunken log2 fold change” value is 0.261.

RRIRSRPPRLPRPRPRPAHHPRP: the “shrunken log2 fold change” value worked out at 0.048.

With RRIRHRPPRLPRPRPRPKMSPRP, the “shrunken log2 fold change” value was 0.166.

Turning to RRIRHRPPRLPRPRPRPVPQPRP, the “shrunken log2 fold change” value is -0.0725.

In the case of RRIRTRPPRLPRPRPRPLEFPRP, the “shrunken log2 fold change” value is -0.0903.

The values above are taken from the supplement of paper PMC9112550, “Optimization of the antimicrobial peptide Bac7 by deep mutational scanning” (BMC Biology, 2022).
